Assay results taken from the supplement of paper PMC10567573.

B1: SNAP91 (parent)
chain: FGGSFMAPSPSPVTPAQNNLLQPN
B2: IRX6 (parent)
chain: YPCLEKPRIWSLAHTATASAVEGA
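Note: lentivirally expressed fusions sorted by FACS into six bins by GFP to DsRed ratio, PSI derived from sequencing read proportions per bin multiplied by bin number.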

Variants of: B1
Experiment: protein stability index of a GFP-peptide fusion (GPS, HEK-293T) (PSI 1-6); higher = more stable
Conditions: c terminus: a fixed tail appended
Work on FGGSAMAPSPSPVTPAQNNLLQPN [F5A] yielded a protein stability index of 3.83. In the case of FGGSIMAPSPSPVTPAQNNLLQPN [F5I], the protein stability index is reported as 4.03. For FGGSFMAPMPSPVTPAQNNLLQPN [S9M], the protein stability index was 2.31. For FGGSFMAPQPSPVTPAQNNLLQPN [S9Q], the protein stability index was 1.43. Work on FGGSFMAPKPSPVTPAQNNLLQPN [S9K] yielded a protein stability index of 1.76. In the case of FGGSFMAPVPSPVTPAQNNLLQPN [S9V], the protein stability index is reported as 1.62. In the case of FGGSFMAPWPSPVTPAQNNLLQPN [S9W], the protein stability index is reported as 3.59. With FGGSFMAPRPSPVTPAQNNLLQPN [S9R] the protein stability index was 1.89. Variant FGGSFMAPEPSPVTPAQNNLLQPN [S9E] has a protein stability index of 1.89. FGVSFMAPSPSPVTPAQNNLLQPN [G3V] showed a protein stability index of 2.37. With FGDSFMAPSPSPVTPAQNNLLQPN [G3D] the protein stability index was 2.7. For FGNSFMAPSPSPVTPAQNNLLQPN [G3N], the protein stability index was 3.1. FGTSFMAPSPSPVTPAQNNLLQPN [G3T] showed a protein stability index of 2.44. With FGGSFMATSPSPVTPAQNNLLQPN [P8T] the protein stability index was 3.12. In the case of FGGSFMANSPSPVTPAQNNLLQPN [P8N], the protein stability index is reported as 2.42. In the case of FGGSFMACSPSPVTPAQNNLLQPN [P8C], the protein stability index is reported as 1.64. With FGGSFMAQSPSPVTPAQNNLLQPN [P8Q] the protein stability index was 2.92. FGGSFMAGSPSPVTPAQNNLLQPN [P8G] gave a protein stability index of 2.67. FGGSFMAMSPSPVTPAQNNLLQPN [P8M] gave a protein stability index of 4.32. Variant FGGSFMAYSPSPVTPAQNNLLQPN [P8Y] has a protein stability index of 3.9. In the case of FGGSFMAVSPSPVTPAQNNLLQPN [P8V], the protein stability index is reported as 2.41. FGGSFMAFSPSPVTPAQNNLLQPN [P8F] gave a protein stability index of 2.53. Work on FGGSFMAASPSPVTPAQNNLLQPN [P8A] yielded a protein stability index of 1.54. In the case of FGGSFMARSPSPVTPAQNNLLQPN [P8R], the protein stability index is reported as 1.85. With FGGSFMADSPSPVTPAQNNLLQPN [P8D] the protein stability index was 2.25. Work on FGGSFMASSPSPVTPAQNNLLQPN [P8S] yielded a protein stability index of 2.89. For FGGSFMAHSPSPVTPAQNNLLQPN [P8H], the protein stability index was 2. FGGSFMALSPSPVTPAQNNLLQPN [P8L] gave a protein stability index of 3.22. FGGSFMAESPSPVTPAQNNLLQPN [P8E] showed a protein stability index of 2.24. Variant FGGSFMAWSPSPVTPAQNNLLQPN [P8W] has a protein stability index of 3.12. Work on FGGSFMEPSPSPVTPAQNNLLQPN [A7E] yielded a protein stability index of 2.06. In the case of FGGSFMQPSPSPVTPAQNNLLQPN [A7Q], the protein stability index is reported as 2.59. In the case of FGGSFMDPSPSPVTPAQNNLLQPN [A7D], the protein stability index is reported as 1.91. Variant FGGSFMHPSPSPVTPAQNNLLQPN [A7H] has a protein stability index of 3. FGGSFMLPSPSPVTPAQNNLLQPN [A7L] showed a protein stability index of 1.87. With FGGSFMVPSPSPVTPAQNNLLQPN [A7V] the protein stability index was 2.54. In the case of FGGSFRAPSPSPVTPAQNNLLQPN [M6R], the protein stability index is reported as 2.24. FGGSFVAPSPSPVTPAQNNLLQPN [M6V] showed a protein stability index of 2.08. With FGGSFMAPSASPVTPAQNNLLQPN [P10A] the protein stability index was 4.52. FGGSFMAPSCSPVTPAQNNLLQPN [P10C] gave a protein stability index of 2.45. For IGGSFMAPSPSPVTPAQNNLLQPN [F1I], the protein stability index was 3.99. Work on NGGSFMAPSPSPVTPAQNNLLQPN [F1N] yielded a protein stability index of 3.94. For FYGSFMAPSPSPVTPAQNNLLQPN [G2Y], the protein stability index was 2.53. Variant FRGSFMAPSPSPVTPAQNNLLQPN [G2R] has a protein stability index of 3.23.

Variants of: B2
Experiment: as above
Conditions: c terminus: a fixed tail appended
For YPCLEKPRIWSLAHTATASAVESA [G23S], the protein stability index was 2.13. Work on YPCLEKPRIWSLAHTATASAVEEA [G23E] yielded a protein stability index of 2.33. In the case of YPCLEKPRIWSLAHTATASAVEQA [G23Q], the protein stability index is reported as 1.25. Work on YPCLEKPRIWSLAHTATASAVEIA [G23I] yielded a protein stability index of 3.44. Work on YPCLEKPRIWSLAHTATASAVETA [G23T] yielded a protein stability index of 2.95. Work on YPCLEKPRIWSLAHTATASAVEFA [G23F] yielded a protein stability index of 2.97. Work on YPCLEKPRIWSLAHTATASAVENA [G23N] yielded a protein stability index of 2.68. Work on YPCLEKPRIWSLAHTATASAVEYA [G23Y] yielded a protein stability index of 3.63. With YPCLEKPRIWSLAHTATASAVEVA [G23V] the protein stability index was 3.24. In the case of YPCLEKPRIWSLAHTATASAVECA [G23C], the protein stability index is reported as 1.41. With YPCLEKPRIWSLAHTATASAVEAA [G23A] the protein stability index was 2.6. With YPCLEKPRIWSLAHTATASAVEWA [G23W] the protein stability index was 1.98. Variant YPCLEKPRIWSLAHTATASAVELA [G23L] has a protein stability index of 2.7. Variant YPCLEKPRIWSLAHTATASAWEGA [V21W] has a protein stability index of 3.41. YPCLEKPRIWSLAHTATASAKEGA [V21K] showed a protein stability index of 1.45. In the case of YPCLEKPRIWSLAHTATASAYEGA [V21Y], the protein stability index is reported as 2.29. With YPCLEKPRIWSLAHTATASASEGA [V21S] the protein stability index was 1.6. For YPCLEKPRIWSLAHTATASAPEGA [V21P], the protein stability index was 3.82. YPCLEKPRIWSLAHTATASANEGA [V21N] showed a protein stability index of 2.73. YPCLEKPRIWSLAHTATASAREGA [V21R] showed a protein stability index of 2.62. In the case of YPCLEKPRIWSLAHTATASALEGA [V21L], the protein stability index is reported as 1.1. With YPCLEKPRIWSLAHTATASAMEGA [V21M] the protein stability index was 1.82. YPCLEKPRIWSLAHTATASATEGA [V21T] gave a protein stability index of 2.23. In the case of YPCLEKPRIWSLAHTATASAVNGA [E22N], the protein stability index is reported as 3.13. In the case of YPCLEKPRIWSLAHTATASAVRGA [E22R], the protein stability index is reported as 2.98. YPCLEKPRIWSLAHTATASAVVGA [E22V] showed a protein stability index of 2.62. Work on YPCLEKPRIWSLAHTATASAVFGA [E22F] yielded a protein stability index of 3.04. YPCLEKPRIWSLAHTATASAVPGA [E22P] gave a protein stability index of 2.34. YPCLEKPRIWSLAHTATASAVMGA [E22M] gave a protein stability index of 3.75. With YPCLEKPRIWSLAHTATASAVWGA [E22W] the protein stability index was 1.73. With YPCLEKPRIWSLAHTATASAVGGA [E22G] the protein stability index was 3.1. Variant YPCLEKPRIWSLAHTATASAVTGA [E22T] has a protein stability index of 2.63. Work on YPCLEKPRIWSLAHTATASAVCGA [E22C] yielded a protein stability index of 3.29. In the case of YPCLEKPRIWSLAHTATASAVLGA [E22L], the protein stability index is reported as 2.67. YPCLEKPRIWSLAHTATASAVSGA [E22S] showed a protein stability index of 1.1. With YPCLEKPRIWSLAHTATASAVDGA [E22D] the protein stability index was 2.16. YPCLEKPRIWSLAHTATASAVHGA [E22H] gave a protein stability index of 2.05. YPCLEKPRIWSLAHTATASAVKGA [E22K] gave a protein stability index of 2.29. Work on YPCLEKPRIWSLAHTATASAVEGY [A24Y] yielded a protein stability index of 3.06. In the case of YPCLEKPRIWSLAHTATASAVEGR [A24R], the protein stability index is reported as 2.99. In the case of YPCLEKPRIWSLAHTATASAVEGK [A24K], the protein stability index is reported as 3.48. YPCLEKPRIWSLAHTATASAVEGD [A24D] showed a protein stability index of 2.95. With YPCLEKPRIWSLAHTATASAVEGC [A24C] the protein stability index was 2.18. With YPCLEKPRIWSLAHTATASAVEGW [A24W] the protein stability index was 2.31. With YPCLEKPRIWSLAHTATASAVEGH [A24H] the protein stability index was 3.03. With YPCLEKPRIWSLAHTATASAVEGV [A24V] the protein stability index was 3.01. Work on YPCLEKPRIWSLAHTATASAVEGE [A24E] yielded a protein stability index of 2.22. For YPCLEKPRIWSLAHTATASAVEGS [A24S], the protein stability index was 1.91. Work on YPCLEKPRIWSLAHTATASAVEGI [A24I] yielded a protein stability index of 3.09. Variant YPCLEKPRIWSLAHTATASAVEGM [A24M] has a protein stability index of 2.52.
